± gives the uncertainty stated by the source.

A short description of the series: protein stability index of a GFP-peptide fusion (yeast GPS) (PSI 1-4); higher = more stable; sorted into four equal gates, so the index is relative within each strain. The procedure, abridged: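 Peptides tiling yeast proteins in 17-residue segments were fused downstream of GFP, with Cherry expressed from the same plasmid. As a pooled library in yeast, mid-log cultures grown in leucine-free medium were sorted into four equal gates by GFP/Cherry fluorescence ratio. Gate plasmids were PCR-amplified and Illumina-sequenced, and barcodes linked reads to strains. Each peptide received a protein stability index equal to the sum of each gate's read frequency times its gate number.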

YNRYRDLMISCLMNQET [MTR3]: the protein stability index turned out to be 2.44 ± 0.062 (doa10∆), 2.56 ± 0.063 (pdr5∆), 2.31 ± 0.084 (san1∆) and 2.5 ± 0.062 (ubr1∆).
The matching figures for VTFSVMPPKKSWRNITN [SMC4]: 2 ± 0.11, 2.45 ± 0.15, 2.23 ± 0.19 and 2.82 ± 0.14.
For the sequence SREVLRYEEFADKVKLG [RPC40], the protein stability index is 2.96 ± 0.08 (doa10∆), 3.26 ± 0.19 (pdr5∆), 3.17 ± 0.12 (san1∆) and 3.21 ± 0.14 (ubr1∆).
The matching figures for TKPAIRRLARRGGVKRI [HHF1]: 3.04 ± 0.13, 3.12 ± 0.16, 3 ± 0.16 and 3.45 ± 0.1.
The matching figures for IVDGKLKTEKIFKEINE [FAS1]: 1.76 ± 0.074, 1.85 ± 0.13, 1.91 ± 0.11 and 1.91 ± 0.091.
The matching figures for RADVEDESNDIDMIADE [RPC37]: 2.95 ± 0.073, 2.72 ± 0.057, 2.8 ± 0.08 and 3.27 ± 0.066.
Turning to ENGLQLSDNAKTLHSQM [RPC34], the protein stability index stood at 3.11 ± 0.18 (doa10∆), 3.27 ± 0.096 (pdr5∆), 3.27 ± 0.07 (san1∆) and 3.13 ± 0.053 (ubr1∆).
The corresponding values for GINSKSGKPFIAGFDLI [PUP3] are 3.11 ± 0.089, 3.29 ± 0.094, 3.3 ± 0.13 and 3.06 ± 0.081.
Consider IKNGRIYFTVPNEFEIQ [RGR1], for which the protein stability index runs as follows: (doa10∆) 2.62 ± 0.06; (pdr5∆) 2.49 ± 0.045; (san1∆) 2.45 ± 0.049; (ubr1∆) 2.57 ± 0.043.
The corresponding values for FPVDPTTPVKLGPGIYC [RRP40] are 2.41 ± 0.058, 2.48 ± 0.056, 2.4 ± 0.052 and 2.2 ± 0.047.
On to KHISASIDNDFSEEKAE [YAR002W/NUP60], for which the protein stability index was 3.04 ± 0.082 (doa10∆), 3.02 ± 0.065 (pdr5∆), 3.23 ± 0.066 (san1∆) and 2.97 ± 0.059 (ubr1∆).
The matching figures for MTVKLESITYQKIMILQ [RGR1]: 2.16 ± 0.071, 1.73 ± 0.068, 1.6 ± 0.095 and 2.56 ± 0.076.
Turning to EWYLSHLCSGILSSVNR [SRB8], the protein stability index reads like this: (doa10∆) 1.41 ± 0.076; (pdr5∆) 1.55 ± 0.079; (san1∆) 1.25 ± 0.095; (ubr1∆) 1.63 ± 0.044.
The corresponding values for DDFLSKKRKAGRPRGRP [SNF2] are 3.25 ± 0.3, 3.1 ± 0.12, 2.96 ± 0.2 and 2.89 ± 0.1.
The matching figures for EIEMKNKLEKLNSLLTY [SMC4]: 1.71 ± 0.055, 1.87 ± 0.058, 1.85 ± 0.1 and 1.61 ± 0.04.
With GDDESKIPAVEYFGGES [FAS1], the protein stability index (pdr5∆) is 3.17 ± 0.29 and the protein stability index (san1∆) stood at 2.97 ± 0.2.
In the case of PLQSMDIEQLEYSRDCF [RPB3], the protein stability index (doa10∆) was 3.16 ± 0.074, the protein stability index (pdr5∆) stood at 3.17 ± 0.068, the protein stability index (san1∆) worked out at 3.21 ± 0.08 and the protein stability index (ubr1∆) came out at 2.93 ± 0.11.
In the case of ILTGTPLQNNLPELWAL [SNF2], the protein stability index turned out to be 2.24 ± 0.05 (doa10∆), 2.4 ± 0.044 (pdr5∆), 2.15 ± 0.055 (san1∆) and 2.3 ± 0.043 (ubr1∆).
For the sequence GRYAGKKVVIVKPHDEG [RPL27A], the protein stability index by setting is: (doa10∆) 3.25 ± 0.25; (pdr5∆) 2.72 ± 0.21; (ubr1∆) 2.29 ± 0.26.
For SDIVLDKKVTLITSEMF [SIN4], the protein stability index came out at 1.69 ± 0.085 (doa10∆), 1.92 ± 0.13 (pdr5∆), 1.79 ± 0.11 (san1∆) and 2.14 ± 0.073 (ubr1∆).
The matching figures for QTVRLIKDLQRAINKVL [SIR2]: 2.13 ± 0.057, 2.03 ± 0.061, 1.22 ± 0.11 and 2 ± 0.039.
The matching figures for GSTFKVNQEFIFEAISL [YJL039C/NUP192]: 2.33 ± 0.1, 2.31 ± 0.12, 1.43 ± 0.15 and 1.49 ± 0.079.
In the case of QLIKQSIKNNVAMCFVI [SNU114], the protein stability index is, setting by setting: (doa10∆) 1.37 ± 0.16; (pdr5∆) 1.69 ± 0.14; (san1∆) 1.24 ± 0.2.
On to PDAQNELPKFILSDSPL [DIS3], for which the protein stability index by setting is: (doa10∆) 2.87 ± 0.048; (pdr5∆) 3.03 ± 0.063; (san1∆) 2.87 ± 0.044; (ubr1∆) 2.92 ± 0.079.
The matching figures for QEHNIQDSNVMPGSQIN [SNF2]: 3.11 ± 0.074, 3.11 ± 0.057, 2.68 ± 0.07 and 3.31 ± 0.062.
The corresponding values for QVPQVRSMSGQPPTNVQ [SNF5] are 2.81 ± 0.05, 3.03 ± 0.042, 3.06 ± 0.037 and 2.95 ± 0.035.

(Values after the supplement of paper PMC9732359.)
